The text below walks through data of article doi:10.1101/767665.

In experiment [1] the target is heliorhodopsin 48C12 (actinobacterium (fosmid from freshwater lake Kinneret)). Put plainly: crystal structure.
The target is the same in experiment [2]. Put plainly: crystal structure. This is another data set of the same source.

Where two headings read alike, the source gives them in different places.

As for “heliorhodopsin 48C12 (from UniProt A0A2R4S913 1-256) (natural protein)”, the stoichiometry N in experiment [1] and in experiment [2] was 2 throughout.
